# Test results taken from patent publication CN111434681A.
# Several values for one entry are separate records, joined by “and”; a condition that tells them apart may be missing. Equal values may be shown once.
# B1: 抗H7N9全人源单克隆抗体6J15 (antibody, V domains shown)
# VH: QVQLVESGAEVKKPGASVKVSCKASGYNIFTSYDINWVRQATGQGLEWMGWMNPDSGDTGFAQKFQGRVTMTRNTSITTAYMELSSLTSEDTAVYYCATGNADCSGSCYNWFDPWGQGTLVTVSS
# VL: SSELTQDPAVSVALGQTVRITCQGDRLRSTYYASWYQQKPGQAPVLVIYGKNNRPSGIPDRFSGSSSGNTASLTITGAQAEDEADYYCNSRDTSGYHLVFGGGTKLTVLV
# Legend:
# [1] = molecular target: H7N9病毒的HA蛋白(购自ACROBiosystems) (H7N9 influenza virus)
# [2] = molecular target: H7N9病毒的HA蛋白(购自ACROBiosystems) (H7N9 influenza virus); remark: listed apart in the source
# [3] = molecular target: H7N9病毒 A/Anhui/1/2013 (血凝素HA on virus) (influenza A virus A/Anhui/1/2013 (H7N9)); experiment: cell-based or functional assay
binder,measurement,setting,value
B1,450nm (OD),[1],2.25 OD 450nm and 1.85 OD 450nm and 1.78 OD 450nm
same,Kd,[2],2.06 nM
same,"微量中和-ELISA实验 (MDCK cells, 100TCID50 virus), IC50",[3],0.35 µg/mL
